± gives the standard deviation of the averaged measurements.

Data set [1] is described as follows: purified protein yield per well (BCA); higher = higher soluble expression. The essentials:
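Candidate enzymes were made in 2 mL autoinduction cultures of E. coli C41(DE3) with 100 µg/mL kanamycin, at 37 °C for 2 h and then 18 °C for 40 h, and purified with Ni-charged magnetic beads and SUMO protease cleavage. The Pierce Rapid Gold BCA kit gave purified protein yield per well. Values lower than 25 ug (0.1 mg/mL) are below the detection threshold.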

A short description of data set [2]: melting temperature (DSF); higher = more thermostable. The essentials:
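Values are melting temperatures from differential scanning fluorimetry. Candidate enzymes were expressed in E. coli C41(DE3), purified on nickel beads and freed by SUMO protease cleavage. In sealed PCR plates on a Bio-Rad CFX96, 45 μL enzyme (0 to 0.3 mg/mL) was combined with 5 μL 5X Sypro Orange. Fluorescence was recorded from 25 °C for 250 cycles, rising 0.3 °C per cycle at a ramp of 0.3 °C/s.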

The nature of data set [3]: PET hydrolysis, aromatic products released after 48 h (umol product/mg enzyme); higher = more PET depolymerization activity. The gist of the method: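 Tagless, SUMO-cleaved candidate enzymes were purified on nickel beads, and 5 μg (50 μL) was added to 3.5 mg amorphous PET film or crystalline PET powder in 450 μL buffer. Buffers were 50 mM NaCitrate (pH 4.5, 5.5), 50 mM NaPhosphate (pH 6.5, 7.5) or glycine (pH 8.5). Sealed plates were incubated 48 h at 40 or 60 °C without shaking. PET hydrolysis activity is the aromatic product in the supernatant, read by absorbance at 260 and 280 nm against buffer blanks and expressed per mg enzyme.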

Setting [4] is: substrate: cryPow, 40 °C, pH 4.5.
Where [5] appears, read: substrate: cryPow, 40 °C, pH 5.5.
Setting [6] is: substrate: cryPow, 40 °C, pH 6.5.
Where [7] appears, read: substrate: cryPow, 40 °C, pH 7.5.
Setting [8] is: substrate: cryPow, 60 °C, pH 4.5.
[9] abbreviates: substrate: cryPow, 60 °C, pH 5.5.
Setting [10] is: substrate: cryPow, 60 °C, pH 6.5.
Where [11] appears, read: substrate: cryPow, 60 °C, pH 7.5.
The mark [12] stands for this setting: substrate: cryPow, 40 °C, pH 8.5.
The mark [13] stands for this setting: substrate: aFilm, 40 °C, pH 4.5.
The mark [14] stands for this setting: substrate: aFilm, 40 °C, pH 5.5.
Setting [15] is: substrate: aFilm, 40 °C, pH 6.5.
Where [16] appears, read: substrate: aFilm, 40 °C, pH 7.5.
Where [17] appears, read: substrate: aFilm, 60 °C, pH 4.5.
The mark [18] stands for this setting: substrate: aFilm, 60 °C, pH 5.5.
[19] abbreviates: substrate: aFilm, 60 °C, pH 6.5.
Where [20] appears, read: substrate: aFilm, 60 °C, pH 7.5.

Take “AQENPYERGPAPTAQNITEDGPFAYATATVPAQSGFAGGAIYYPTDTSQGTFGAVAAVPGFLTPVDDVAWMGPRLASHGFVVFTIEPNSRFEFPSGRAAALKAGLTYLTQSSAVRDRVDPTRLAVAGHSMGGGAALEAALKDPNLKAAVALQPWHTGVNFSTVNVPSMIVGAENDPIASPASHAEPFYEQIPAASEKAYLNLAGVGHEVGGVVTNDTQSSMMLTWLKRYVDNDTRYEPFMCPGPSGSSVLEYRGTCPG [TEP170]”: in data set [1], the “purified protein yield per well” value was determined as 137 µg. Moreover, the melting temperature in data set [2] was determined as 49.3 C. Further, the PET hydrolysis in data set [3] (setting [4]), in data set [3] (setting [5]), in data set [3] (setting [6]), in data set [3] (setting [7]), in data set [3] (setting [8]) and in data set [3] (setting [9]) was under 3 each time. Moreover, the PET hydrolysis in data set [3] (setting [10]) and in data set [3] (setting [11]) was under 3 throughout.

For the sequence “AQTSQVVTANPHQRGPDPTPETVRAPQGTFAFSTYSVPASVTGFGQGTIYYPDDTTQGTFAGVAISPGYTGPEASVAWLGPRLASRGFVVITITTNSRYDQPTSRGKQLLAALDYLTKQSPTEVRQRLDATRLGVMGHSMGGGGALYAAYKRPSLKAAVPLAPWNLIKNWSGIRVPTLVVAGTADKTASAGAHSLPFYSSMTGARERAFADVTGADHLTFVREDPVIGALAVSWLKRFLDDDTRYAPFITEPVGLSRFLCSCPYAG [DP007]”, the “purified protein yield per well” value in data set [1] was 46 µg. The sequence also gave a melting temperature in data set [2] of 51.7 C. Besides, the PET hydrolysis is under 3 in data set [3] (setting [5]), 8 in data set [3] (setting [6]), 16 in data set [3] (setting [7]) and 16 in data set [3] (setting [12]).

For the sequence “ASPYERGPDPTDSILEASRGPFATSQLSVSSLSVSGFGGGTVYYPTDTSQGTFGAIAISPGYTARWSSLAWLGPRIASHGFVVIGIETNTIYDQPASRGRQLLAALDYLTSSSPSTVRSRIDASRLAVAGHSMGGGGTLEAANDRPSLQAAVPLAPWNLTKIWSGVRVPTMIIGGEADTVAPVASHSEPFYQSIPSSVEKAYLELNNASHFFPQTTNTTMAKSMVAWLKRFVDDDTRYDQFLCPAPRGLAIQEYRDTCPIS [TEP144]”, the “purified protein yield per well” value in data set [1] stood at 32.6 µg. For the same sequence, in data set [2], the melting temperature was 46.6 C. The PET hydrolysis in data set [3] (setting [4]), in data set [3] (setting [5]), in data set [3] (setting [6]) and in data set [3] (setting [7]) was under 3 each time.

Regarding “ASPYERGPNPTAASVSATTGPFAIASVSVARGNGFGGGVIYYPTATNQGTFGGIAISPGLNGTWAGIAWLGPRLASQGFVVFGIETNNLNDSPTSRGTQLLAALDYLTQRSTVRTRVDAGRLAVMGHSMGGGGALDAALRRPSLQAAIGNAPHLPSGTLSNDRVPTMIYAMQNDTLVPPSRLTTLYNSIPATTERGYILVTGAGHNYIGQPSTTLARTMIPWFKIFIDDDTRYSQFLCPMSNQSGISQYRNSCPLS [ESM160]”, the “purified protein yield per well” value in data set [1] was determined as 400 µg. Moreover, the melting temperature in data set [2] was 55.6 C. Besides, the PET hydrolysis in data set [3] (setting [13]), in data set [3] (setting [14]), in data set [3] (setting [15]), in data set [3] (setting [16]), in data set [3] (setting [17]) and in data set [3] (setting [18]) was under 3 in each case. In addition, the PET hydrolysis was under 3 in data set [3] (setting [19]); under 3 in data set [3] (setting [20]); under 3 in data set [3] (setting [4]); 13.5 ± 2.1 in data set [3] (setting [5]); 43.5 ± 3.5 in data set [3] (setting [6]); 66.5 ± 0.71 in data set [3] (setting [7]). Besides, the PET hydrolysis is under 3 in data set [3] (setting [8]), under 3 in data set [3] (setting [9]), 7.5 ± 0.71 in data set [3] (setting [10]) and 14 ± 1.4 in data set [3] (setting [11]).

Regarding “ASPYERGPNPTTAILEASSGPYSVSSVSVSSLVTGFGGGRIYYPTTTADGTFGGIAISPGFTARWSSLEWLGPRIASHGFVVIGIETNSIYDQPTSRGQQLLAALDYLVNSSSARTRVDRNRLAVAGHSMGGGGTLYAANARPSLQAAVPIAPWNTDKTWGGVQVPTMIIGGESDSVAPVATHAIPFYTSIPASSEKAYLELNNASHFFPQTVNTTMAKSMVSWLKRYVDDDTRYDPWLCPAPSGLSISDYRDTCPA [DP084]”, the “purified protein yield per well” value in data set [1] amounted to 91 µg. In data set [2], this sequence had a melting temperature of 48.7 C. Also, the PET hydrolysis is under 3 in data set [3] (setting [5]); 3 in data set [3] (setting [6]); 9 in data set [3] (setting [7]); 11 in data set [3] (setting [12]); under 3 in data set [3] (setting [9]); under 3 in data set [3] (setting [10]). Further, the PET hydrolysis in data set [3] (setting [11]) is under 3; in data set [3] (substrate: cryPow, 60 °C, pH 8.5), under 3.

“ASPYQRGPNPTAASIAATTGPFAIASITVPRGNGFGGGVIYYPTSTSQGTFGGIAISPGLNGTWSGISWLGPRLASQGFVVFGIETNNLNDSPTSRGTQLLAALDYLTQRSSVRSRLDANRLAVMGHSMGGGGALDAALRRPTLKATIGNAPHLPSGSLANDRVPTLIYAMQNDTLVTPARLTSLYNTIPAATERAYIEVTGAGHNYIGQPSTTLARTMIPWLKIFIDSDTRYAPFLCPLNDRSGIRQYRNSCPLI [ESM128]”: the “purified protein yield per well” value in data set [1] turned out to be 407 µg. In data set [2], this sequence came in with a melting temperature of 66.4 C. The PET hydrolysis was under 3 in data set [3] (setting [13]); under 3 in data set [3] (setting [14]); under 3 in data set [3] (setting [15]); 6 in data set [3] (setting [16]); under 3 in data set [3] (setting [17]); under 3 in data set [3] (setting [18]). The PET hydrolysis in data set [3] (setting [19]) was under 3; in data set [3] (setting [20]), under 3; in data set [3] (setting [4]), under 3; in data set [3] (setting [5]), 43; in data set [3] (setting [6]), 75 ± 1.4; in data set [3] (setting [7]), 110 ± 4.2. In addition, the PET hydrolysis in data set [3] (setting [8]) was under 3; in data set [3] (setting [9]), 4.5 ± 0.71; in data set [3] (setting [10]), 18.5 ± 3.5; in data set [3] (setting [11]) it was 41.5 ± 6.4.

For “ASYQRGPDPTVQSVAANRGTFATAELTVPRGFGFNGGKIYYPTDTSQGTWGAIAAVPGYTASWAAEGAWMGPWLASFGFVVIGIDTNSPTDYDTARGTQLLAALDYLTGQSAVRDRVDPNRLAVLGHSMGGGGAISAAMRRPSLKAAVPLAPASFSQNLSNVRVPTLIMGARDDGTITPSSIDGLWSSKPATTQGARVELASGGHGFPTWGNSQVTRREIPWLKIFLDNDNRYAQFLCPSLADSTGVSRYISQCPYGSTGQPSSPPVSSPPAAGGPVRAVGAGKCLDVPNASQTNDTQLAIWDCNGGSNQQWTYTSGKQLRVYGGKCLDASGHGMSNGTRVIIWDCGGGANQQWNVNANGTITGVESGLCLDVTGAATANGALVDLWACNNGGNQQWRLG [ESM097]”, the “purified protein yield per well” value in data set [1] is 81.7 µg. Moreover, in data set [2], the melting temperature was found to be 58.3 C. The PET hydrolysis in data set [3] (setting [4]) is under 3; in data set [3] (setting [5]), under 3; in data set [3] (setting [6]), under 3; in data set [3] (setting [7]) it was 4.

On to “ASYQRGPDPTVQSVAANRGTFPTAEITVPRGYGFNGGKIYYPTDTSQGTWGAIAAVPGYTASWAAEGAWMGPWLASFGFVVIGIDTNSPTDFDTARGTQLLAALDYLTGQSAVRDRVDPNRLAVLGHSMGGGGAISAAMRRPTLKAAIPLAPASFSQNLSTVRVPTLIMGARDDGTVTPSSINSLWATKPATTKGAYVELTGGGHGFPTWGNSQVTRREIPWLKIFLDNDNRYTQFLCPSLADNTGVSRYLSECPYGSTGQPTSPPSTPPPTSGGPVRAVGAGKCLDVPNASQTNDTQLAIWDCNGGTNQRWTRTAGKQLTVYGNKCLDAAGQGTTNGTRVIIWDCTGTANQQWNVNANGTITGVQSGLCLDVSGGSTANGALTQLWACNNGSNQQWRLG [ESM070]”, for which, in data set [1], the “purified protein yield per well” value is 254 µg. In data set [2], this sequence returned a melting temperature of 64.6 C. Moreover, the PET hydrolysis in data set [3] (setting [4]) is under 3; in data set [3] (setting [5]) it was 4; in data set [3] (setting [6]), 10; in data set [3] (setting [7]), 17; in data set [3] (setting [8]) it was under 3; in data set [3] (setting [9]), under 3. In addition, the PET hydrolysis in data set [3] (setting [10]) and in data set [3] (setting [11]) was under 3 throughout.

Values taken from the supplement of paper PMC12455559.
